Earlier results in paper PMC7232523.

Legend:
[1] = molecular target: IL-13Ra1/IL-4Ra (Homo sapiens) (UniProt P78552)
[2] = molecular target: IL-4Ra (Homo sapiens) (UniProt P24394)
Sequence of UniProt P24394 (P24394 26-232): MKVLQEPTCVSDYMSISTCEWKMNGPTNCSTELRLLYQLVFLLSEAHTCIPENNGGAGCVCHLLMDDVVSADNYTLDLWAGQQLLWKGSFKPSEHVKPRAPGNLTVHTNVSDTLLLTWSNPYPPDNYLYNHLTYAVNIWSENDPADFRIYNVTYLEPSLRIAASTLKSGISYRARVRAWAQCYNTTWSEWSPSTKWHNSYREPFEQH

Sequence of UniProt P78552 (P78552 22-343, chain 1 of 2): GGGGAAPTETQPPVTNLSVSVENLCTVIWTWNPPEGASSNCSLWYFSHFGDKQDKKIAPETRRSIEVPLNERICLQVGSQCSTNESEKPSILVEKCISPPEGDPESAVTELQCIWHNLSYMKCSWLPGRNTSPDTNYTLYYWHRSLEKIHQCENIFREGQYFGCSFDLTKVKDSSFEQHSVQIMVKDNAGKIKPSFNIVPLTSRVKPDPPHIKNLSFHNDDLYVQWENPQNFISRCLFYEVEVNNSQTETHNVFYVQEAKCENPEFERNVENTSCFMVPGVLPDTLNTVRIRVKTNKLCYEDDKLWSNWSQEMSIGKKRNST
Sequence of UniProt P78552 (P24394 26-232, chain 2 of 2, further chain): as the sequence (P24394 26-232) above

Row | Substance | Kd [1] | Kd [2]
1 | IL-13 (from UniProt P35225) | 0.035 nM | 
2 | IL-4 (from UniProt P05112) |  | 0.1 nM
